The values that follow come from the supplement of paper PMC10567573.

B1: ZNF449 (parent)
chain: FQEYDTDCEVFRQRFRQFQYREAA
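Also: lentivirally expressed fusions sorted by FACS into six bins by GFP to DsRed ratio, PSI derived from sequencing read proportions per bin multiplied by bin number.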

In the data set the parent is B1. As to the kind of experiment: protein stability index of a GFP-peptide fusion (GPS, HEK-293T) (PSI 1-6); higher = more stable. The settings on record: c terminus: a fixed tail appended.
Consider FQEYDTECEVFRQRFRQFQYREAA [D7E], for which the protein stability index came out at 2.26. On to FQEYDTICEVFRQRFRQFQYREAA [D7I], for which the protein stability index came to 2.25. Regarding FQEYDTCCEVFRQRFRQFQYREAA [D7C], the protein stability index came out at 1.1. As to FQEYDTPCEVFRQRFRQFQYREAA [D7P], the protein stability index worked out at 1.61. On to FQEYDTLCEVFRQRFRQFQYREAA [D7L], for which the protein stability index came out at 1.93.

For the variant FQEYDTTCEVFRQRFRQFQYREAA [D7T], the protein stability index turned out to be 2.08. As for FQEYDTNCEVFRQRFRQFQYREAA [D7N], the protein stability index is 1.83.

In the case of FQEYDTQCEVFRQRFRQFQYREAA [D7Q], the protein stability index came out at 2.68. To FQEYDTHCEVFRQRFRQFQYREAA [D7H] belongs 2.12; to FQEYDTKCEVFRQRFRQFQYREAA [D7K], 2.02. FQEYDTGCEVFRQRFRQFQYREAA [D7G]: the protein stability index came to 2.02. On to FQEYDTYCEVFRQRFRQFQYREAA [D7Y], for which the protein stability index amounted to 1.34. FQEYDTFCEVFRQRFRQFQYREAA [D7F]: the protein stability index turned out to be 2.27.

For the variant FQEYDTSCEVFRQRFRQFQYREAA [D7S], the protein stability index is 2.1. For the variant FQEYDTVCEVFRQRFRQFQYREAA [D7V], the protein stability index was determined as 1.34. For FQEYDTRCEVFRQRFRQFQYREAA [D7R], the protein stability index is 2.3. FQEYDTMCEVFRQRFRQFQYREAA [D7M]: the protein stability index was determined as 1.59. On to FQEYDTACEVFRQRFRQFQYREAA [D7A], for which the protein stability index amounted to 1.53.

As to PQEYDTDCEVFRQRFRQFQYREAA [F1P], the protein stability index turned out to be 3.42. For the variant GQEYDTDCEVFRQRFRQFQYREAA [F1G], the protein stability index worked out at 3.31. As to DQEYDTDCEVFRQRFRQFQYREAA [F1D], the protein stability index was 3.01.

Regarding HQEYDTDCEVFRQRFRQFQYREAA [F1H], the protein stability index was 3.24. Consider EQEYDTDCEVFRQRFRQFQYREAA [F1E], for which the protein stability index came to 3.25. With MQEYDTDCEVFRQRFRQFQYREAA [F1M], the protein stability index amounted to 3.03. To LQEYDTDCEVFRQRFRQFQYREAA [F1L] belongs 3.19. With IQEYDTDCEVFRQRFRQFQYREAA [F1I], the protein stability index was 2.81. To RQEYDTDCEVFRQRFRQFQYREAA [F1R] belongs 2.43; to SQEYDTDCEVFRQRFRQFQYREAA [F1S], 2.85. Turning to YQEYDTDCEVFRQRFRQFQYREAA [F1Y], the protein stability index came out at 2.25. The same measure for TQEYDTDCEVFRQRFRQFQYREAA [F1T]: 3.22; for WQEYDTDCEVFRQRFRQFQYREAA [F1W]: 2.82. AQEYDTDCEVFRQRFRQFQYREAA [F1A]: the protein stability index was determined as 2.85.

For the variant NQEYDTDCEVFRQRFRQFQYREAA [F1N], the protein stability index was 3.23. For the variant QQEYDTDCEVFRQRFRQFQYREAA [F1Q], the protein stability index is 2.79. For CQEYDTDCEVFRQRFRQFQYREAA [F1C], the protein stability index stood at 2.6. The same measure for FQEYDEDCEVFRQRFRQFQYREAA [T6E]: 2.17.

On to FQEYDVDCEVFRQRFRQFQYREAA [T6V], for which the protein stability index worked out at 2.22. Take FQEYDPDCEVFRQRFRQFQYREAA [T6P]: the protein stability index worked out at 2.77. As for FQEYDGDCEVFRQRFRQFQYREAA [T6G], the protein stability index amounted to 1.92. Consider FQEYDCDCEVFRQRFRQFQYREAA [T6C], for which the protein stability index turned out to be 1.94.

For FQEYDNDCEVFRQRFRQFQYREAA [T6N], the protein stability index was 2.67. For FQEYDFDCEVFRQRFRQFQYREAA [T6F], the protein stability index came out at 2.22.

As to FQEYDKDCEVFRQRFRQFQYREAA [T6K], the protein stability index worked out at 2.05. Regarding FQEYDMDCEVFRQRFRQFQYREAA [T6M], the protein stability index was found to be 2.13.

On to FQEYDADCEVFRQRFRQFQYREAA [T6A], for which the protein stability index was determined as 2.58. The same measure for FQEYDQDCEVFRQRFRQFQYREAA [T6Q]: 2.65; for FQEYDIDCEVFRQRFRQFQYREAA [T6I]: 2.74. Take FQEYDWDCEVFRQRFRQFQYREAA [T6W]: the protein stability index worked out at 2.11. As to FQEYDHDCEVFRQRFRQFQYREAA [T6H], the protein stability index worked out at 2.1. As to FQEYDYDCEVFRQRFRQFQYREAA [T6Y], the protein stability index is 2.81. In the case of FQEYDSDCEVFRQRFRQFQYREAA [T6S], the protein stability index was 1.73. Regarding FQEYDLDCEVFRQRFRQFQYREAA [T6L], the protein stability index came out at 1.89. As for FQEYDDDCEVFRQRFRQFQYREAA [T6D], the protein stability index amounted to 2.62. In the case of FQEYDTDCNVFRQRFRQFQYREAA [E9N], the protein stability index stood at 2.35.

FQEYDTDCAVFRQRFRQFQYREAA [E9A]: the protein stability index turned out to be 2.

FQEYDTDCKVFRQRFRQFQYREAA [E9K]: the protein stability index worked out at 2.21. The same measure for FQEYDTDCHVFRQRFRQFQYREAA [E9H]: 1.6.

Regarding FQEYDTDCPVFRQRFRQFQYREAA [E9P], the protein stability index turned out to be 2.46. Turning to FQEYDTDCLVFRQRFRQFQYREAA [E9L], the protein stability index was 1.67. Take FQEYDTDCQVFRQRFRQFQYREAA [E9Q]: the protein stability index came out at 1.88. Turning to FQEYDTDCCVFRQRFRQFQYREAA [E9C], the protein stability index is 1.76. In the case of FQEYDTDCGVFRQRFRQFQYREAA [E9G], the protein stability index is 2.29. Turning to FQEYDTDCMVFRQRFRQFQYREAA [E9M], the protein stability index stood at 2.65. As for FQEYDTDCDVFRQRFRQFQYREAA [E9D], the protein stability index turned out to be 2.16. Consider FQEYDTDCFVFRQRFRQFQYREAA [E9F], for which the protein stability index was determined as 1.96. To FQEYDTDCIVFRQRFRQFQYREAA [E9I] belongs 2.47. To FQEYDTDQEVFRQRFRQFQYREAA [C8Q] belongs 2.21; to FQEYDTDGEVFRQRFRQFQYREAA [C8G], 2.08. Turning to FQEYDTDIEVFRQRFRQFQYREAA [C8I], the protein stability index was 2.49. For the variant FQEYDTDFEVFRQRFRQFQYREAA [C8F], the protein stability index was 2.24. For FQEYDTDHEVFRQRFRQFQYREAA [C8H], the protein stability index was determined as 3.01. Take FQEYDTDKEVFRQRFRQFQYREAA [C8K]: the protein stability index came out at 2.63.

For the variant FQEYDTDSEVFRQRFRQFQYREAA [C8S], the protein stability index came out at 2.88. Consider FQEYDTDTEVFRQRFRQFQYREAA [C8T], for which the protein stability index was determined as 2.71. Turning to FQEYDTDPEVFRQRFRQFQYREAA [C8P], the protein stability index worked out at 2.7.

For the variant FQEYDTDREVFRQRFRQFQYREAA [C8R], the protein stability index is 2.32. Regarding FQEYDTDVEVFRQRFRQFQYREAA [C8V], the protein stability index was 2.74. Turning to FQEYDTDMEVFRQRFRQFQYREAA [C8M], the protein stability index stood at 2.71. To FQEYDTDAEVFRQRFRQFQYREAA [C8A] belongs 2.76; to FQEYDTDEEVFRQRFRQFQYREAA [C8E], 3.42. The same measure for FQEYDTDLEVFRQRFRQFQYREAA [C8L]: 2.04; for FQEYDTDYEVFRQRFRQFQYREAA [C8Y]: 2. As for FQEYDTDWEVFRQRFRQFQYREAA [C8W], the protein stability index stood at 1.83. For the variant FQEYDTDNEVFRQRFRQFQYREAA [C8N], the protein stability index turned out to be 2.58. FQEYDTDDEVFRQRFRQFQYREAA [C8D]: the protein stability index was found to be 3.11. As for FHEYDTDCEVFRQRFRQFQYREAA [Q2H], the protein stability index came to 1.78.

On to FPEYDTDCEVFRQRFRQFQYREAA [Q2P], for which the protein stability index amounted to 2.72. As to FEEYDTDCEVFRQRFRQFQYREAA [Q2E], the protein stability index is 2.73. On to FAEYDTDCEVFRQRFRQFQYREAA [Q2A], for which the protein stability index was found to be 2.9.

In the case of FTEYDTDCEVFRQRFRQFQYREAA [Q2T], the protein stability index came to 2.69. As to FFEYDTDCEVFRQRFRQFQYREAA [Q2F], the protein stability index amounted to 2.48. The same measure for FMEYDTDCEVFRQRFRQFQYREAA [Q2M]: 2.61. As to FGEYDTDCEVFRQRFRQFQYREAA [Q2G], the protein stability index came out at 2.59. Turning to FREYDTDCEVFRQRFRQFQYREAA [Q2R], the protein stability index was determined as 2.09.
